Assays:
[1] = biological target: T1, human 4-1BB (human, UniProt Q07011 24-186, limits assumed); assay: BLI (Octet); conditions not stated
T1 construct: Soluble antigen in Octet; construct not described

[2] = biological target: T2, CD19 (UniProt P15391 20-291, limits assumed); assay: BLI (Octet); conditions not stated
T2 sequence (looked up): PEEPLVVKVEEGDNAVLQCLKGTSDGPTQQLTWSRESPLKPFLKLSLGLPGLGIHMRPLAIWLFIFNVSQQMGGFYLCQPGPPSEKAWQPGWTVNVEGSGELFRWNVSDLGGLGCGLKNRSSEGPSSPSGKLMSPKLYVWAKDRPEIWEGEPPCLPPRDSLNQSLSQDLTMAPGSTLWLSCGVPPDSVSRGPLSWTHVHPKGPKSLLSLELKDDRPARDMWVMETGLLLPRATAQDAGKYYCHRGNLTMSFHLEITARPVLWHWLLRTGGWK

[3] = biological target: T3, human CD3 (human, UniProt P07766 23-126; P04234 22-105); assay: BLI (Octet); conditions not stated
T3 construct: also called His-tagged human CD3; human CD3 (Acro CDD-H52W1)

[4] = biological target: T4, human PD-L1 (human, UniProt Q9NZQ7 19-238); assay: BLI (Octet); conditions not stated
T4 construct: Soluble antigen in Octet; bought; also called human PD-L1 (Acro PD1-H5229)

[5] = biological target: NKG2D ligand; assay: BLI (Octet); conditions and ligand not stated

Kd [1]: 2.74 nM | Kd [2]: 5.5 nM | Kd [3]: 30.2 nM | Kd [4]: 2.23 nM | Kd [5]: 24.5 nM
B1: SI-49PM1 (other)
chain 1: FLNSLFNQEVQIPLTESYCGPCPKNWICYKNNCYQFFDESKNWYESQASCMSQNASLLKVYSKEDQDLLKLVKSYHWMGLVHIPTNGSWQWEDGSILSPNLLTIIEMQKGDCALYASSFKGYIENCSTPNTYICMQRTVGGGGSGGGGSGGGGSGGGGSFLNSLFNQEVQIPLTESYCGPCPKNWICYKNNCYQFFDESKNWYESQASCMSQNASLLKVYSKEDQDLLKLVKSYHWMGLVHIPTNGSWQWEDGSILSPNLLTIIEMQKGDCALYASSFKGYIENCSTPNTYICMQRTVVDGGGGSGGGGSEVQLVESGGGLVQPGGSLRLSCAASGFTISTNAMSWVRQAPGKGLEWIGVITGRDITYYASWAKGRFTISRDNSKNTLYLQMNSLRAEDTAVYYCARDGGSSAITSNNIWGQGTLVTVSSASTKGPSVFPLAPSSKSTSGGTAALGCLVKDYFPEPVTVSWNSGALTSGVHTFPAVLQSSGLYSLSSVVTVPSSSLGTQTYICNVNHKPSNTKVDKRVEPKSCDKTHTCPPCPAPEAAGGPSVFLFPPKPKDTLMISRTPEVTCVVVDVSHEDPEVKFNWYVDGVEVHNAKTKPREEQYASTYRVVSVLTVLHQDWLNGKEYKCAVSNKALPAPIEKTISKAKGQPREPQVCTLPPSRDELTKNQVSLSCAVKGFYPSDIAVEWESNGQPENNYKTTPPVLDSDGSFFLVSKLTVDKSRWQQGNVFSCSVMHEALHNHYTQKSLSLSPGGGGGSGGGGSRSLVESGGGLVQPGGSLRLSCTASGFTISSYHMQWVRQAPGKCLEYIGTISSGGNVYYASSARGRFTISRPSSKNTVDLQMNSLRAEDTAVYYCARDSGYSDPMWGQGTLVTVSSGGGGSGGGGSGGGGSGGGGSDVVMTQSPSSVSASVGDRVTITCQASQNIRTYLSWYQQKPGKAPKLLIYAAANLASGVPSRFSGSGSGTDFTLTISDLEPGDAATYYCQSTYLGTDYVGGAFGCGTKVEIK
chain 2: ENVLTQSPASLSASPGERVTITCSASSSVSYMHWYQQKPGQAPKLWIYDTSKLASGVPSRFSGSGSGNDHTLTISSMEPEDFATYYCFQGSVYPFTFGQGTKVTVLGGGGSGGGGSGGGGSGGGGSQVTLKESGPGLVQPGQTLSLTCAFSGFSLSTSGMGVGWIRQPPGKGLEWLAHIWWDDDKRYNPALKSRLTISKDTSKNQVYLQMNSLDAEDTAVYYCARMELWSYYFDYWGQGTLVTVSSGGGGSGGGGSDVVMTQSPSTLSASVGDRVTINCQASESISSWLAWYQQKPGKAPKLLIYEASKLASGVPSRFSGSGSGTEFTLTISSLQPDDFATYYCQGYFYFISRTYVNSFGGGTKVEIKRTVAAPSVFIFPPSDEQLKSGTASVVCLLNNFYPREAKVQWKVDNALQSGNSQESVTEQDSKDSTYSLSSTLTLSKADYEKHKVYACEVTHQGLSSPVTKSFNRGECGGDKTHTCPPCPAPEAAGGPSVFLFPPKPKDTLMISRTPEVTCVVVDVSHEDPEVKFNWYVDGVEVHNAKTKPREEQYNSTYRVVSVLTVLHQDWLNGKEYKCAVSNKALPAPIEKTISKAKGQPREPQVYTLPPSRDELTKNQVSLWCLVKGFYPSDIAVEWESNGQPENNYKTTPPVLDSDGSFFLYSKLTVDKSRWQQGNVFSCSVMHEALHNRFTQKSLSLSPGGGGGSGGGGSDIQMTQSPSTLSASVGDRVTITCQASQSISSHLNWYQQKPGKAPKLLIYKASTLASGVPSRFSGSGSGTEFTLTISSLQPDDFATYYCQQGYSWGNVDNVFGGGTKVTVLGGGGSGGGGSGGGGSGGGGSEVQLLESGGGLVQPGGSLSLSCAASGFSFSSGYDMCWVRQAPGKGLEWIACIAAGSAGITYDANWAKGRFTISRDNSKNTLYLQMNSLRAEDTAVYYCARSAFSFDYAMDLWGQGTLVTVSS
notes: control penta-miniGNC; D1 NKG2D (tandem dimer), D2 αCD19, D3 αCD3 (Fab), D4 α4-1BB, D5 αPD-L1

Source: patent US20230114801A1 (SYSTIMMUNE, published 2023)
